# Where no end group is shown, it is not given here.
# T1: elastase (Homo sapiens, UniProt P08246)
# T1 construct: purchased Elastin Products Company, Inc. (Owensville, MO, USA)
# T1 sequence (P08246 30-267): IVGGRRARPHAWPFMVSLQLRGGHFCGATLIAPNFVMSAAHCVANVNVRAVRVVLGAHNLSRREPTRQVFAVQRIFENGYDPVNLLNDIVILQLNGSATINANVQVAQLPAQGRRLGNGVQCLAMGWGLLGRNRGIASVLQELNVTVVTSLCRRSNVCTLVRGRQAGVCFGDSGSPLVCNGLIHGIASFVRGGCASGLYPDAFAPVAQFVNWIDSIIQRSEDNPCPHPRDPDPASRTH
# Columns and labels:
# [1] = biological target: T1, elastase; conditions: pathologic conditions associated with neutrophil dysfunction; ref [22]; cited from earlier work
# From the text: Neutrophils also release granule contents containing enzymes such as elastase, proteinase-3, and cathepsin G. Elastase, a particularly inflammatory enzyme, interferes with thrombomodulin function, and cleaves TF pathway inhibitor (TFPI), the physiological inhibitor of the extrinsic pathway. […] Elastase also induces proteinase-activated receptor activation, contributes to cytokine production and processing, inactivates metalloprotease inhibitors, deg ...
# [2] = tested on: inflammation; conditions: ref [14]; cited from earlier work
# From the text: (§1) In fact, platelets […] ...
# [3] = tested on: neutrophils; test: Neutrophil-induced coagulation; type: cell-based, human; conditions: DNAse (Dornase alfa) 4 µg/ml, 1 h, then PMA 50 nM, 3 h
# Experimental: A) Platelet aggregation. Washed human platelets were stimulated with elastase only (500 nM, left panel), or cathepsin G only (110 nM, middle tracing), or elastase followed by cathepsin G (right tracing). […] Aggregation response was monitored by turbidimetry using a Lumi-Aggregometer. D) TFPI cleavage. […] After 2 h, reactions were stopped by addition of LDS loading buffer (under reducing conditions, 10 mM DTT), boiled for 5 min, and loaded in 4–12% Nu-PAGE gel. Gels were Coomassie Blue-stained. E) Neutrophil-induced coagulation. […] Fifty µl of this suspension was added to 50 µl of plasma, and reactions were started by addition of CaCl2 (12.5 mM, final concentration)(*, p<0.05).
# (§2) Whole blood (5 mL collected in 0.5 mL of 3.2% sodium citrate) from healthy donors was diluted in an equal volume of PBS, layered over 5 mL of HISTOPAQUE solution (10771, Sigma Aldrich), and centrifuged for 40 min, at 400×g, at room temperature. The lower interphase having granulocytes was collected and transferred to a 15-ml Falcon tube and resuspended in 10 ml ammonium chloride lysis buffer (1.7 M NH4Cl, […], 1 mM EDTA) to lyse red blood cells. Lysis was carried out twice followed by centrifugation for 10 min at 400×g. Neutrophils were washed with PBS and resuspended at 1×10^6 cells/mL in high glucose DMEM (GIBCO). Neutrophils were kept on ice. […]
# [4] = tested on: baboons; conditions: NETs-related thrombosis, DNase treatment; ref [19]; cited from earlier work
# From the text: as §1
# [5] = tested on: neutrophils; test: NETs formation; type: cell-based, human; conditions: DNAse (Dornase alfa) 4 µg/ml; not shown
# Experimental: Left panel, non-activated neutrophil (no PMA). Formation of NETs was visualized under confocal microscopy, using antibody against citrullinated histone. Representative experiment is shown (4 different donors). B) Quantification. Performed as described in Methods.
# as §2, with “400×g.” for “400×g. Neutrophils were washed with PBS and resuspended at 1×10^6 cells/mL in high glucose DMEM (GIBCO). Neutrophils were kept on ice.”
# Cells were fixed with 500 µl of 4% paraformaldehyde (final concentrations) for 10 min, washed 3 times with PBS and incubated for 10 min with blocking solution (PBS, 10%FBS, 5 mg/ml BSA). […] NETs were quantified according to Farley et al. Briefly, NETs were identified on digitalized images as Hoechst-positive fibrils emanating from cells with an overall length at least twice as long as the cell diameter and were counted for at least two fields of view per variable. Results were expressed as the percentage of NETs/total number of granulocytes.
Molecule,clinical trial results [1],inflammation in several in vivo models [2],pro-coagulant activity of PMA-activated neutrophils [3],thrombosis in baboons [4],NETs-associated fluorescence signal [5]
"Elafin: potent elastase inhibitor purified from bronchial secretions (AQEPVKGPVSTKPGSCPIILIRCAMLNPPNRCLKDTDCPGIKKCCEGSCGMACFVPQ; ends and bridges not checked; cysteine pairing not given here; UniProt P19957 61-117, looked up)",mixed results,blocks inflammation,,,
"DNAse: DNAse (Dornase alfa, Genentech Inc.) (protein, UniProt P24855 23-282, looked up) Deoxyribonuclease-1: LKIAAFNIQTFGETKMSNATLVSYIVQILSRYDIALVQEVRDSHLTAVGKLLDNLNQDAPDTYHYVVSEPLGRNSYKERYLFVYRPDQVSAVDSYYYDDGCEPCGNDTFNREPAIVRFFSRFTEVREFAIVPLHAAPGDAVAEIDALYDVYLDVQEKWGLEDVMLMGDFNAGCSYVRPSQWSSIRLWTSPTFQWLIPDSADTTATPTHCAYDRIVVAGMLLRGAVVPDSALPFNFQAAYGLSDQLAQAISDHYPVEVMLK",,,reversed,prevented,completely abrogated

# — paper PMC4161438 (PLoS Pathogens, 2014)
